According to the supplement of paper PMC5998384:

Key:
HeLa Kyoto [1] = test: solubility in G1/S (NP-40 vs SDS abundance) (log2 ratio); higher = more soluble; conditions: cell cycle stage: G1/S
HeLa Kyoto [2] = test: melting temperature (median over replicates), in situ; higher = more thermally stable
HeLa Kyoto [3] = test: solubility change mitosis vs G1/S (difference of NP-40 vs SDS log2 ratios) (log2 ratio difference); higher = more soluble in mitosis
HeLa Kyoto [4] = test: thermal stability score vs G1/S (z-score of summed log2 fold changes over temperatures); higher = more thermally stable than in G1/S
[5] = cell cycle stage: early G1 (4.5 h after nocodazole release)
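Wherever melting temperature (median over replicates), in situ is given: HeLa Kyoto cells synchronized by double thymidine or nocodazole block, proteins quantified by TMT10plex mass spectrometry, three independent biological replicates.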
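Wherever solubility change mitosis vs G1/S (difference of NP-40 vs SDS log2 ratios) is given: synchronized HeLa Kyoto cells (double thymidine block for G1/S, nocodazole release for mitosis), protein amounts in NP-40 versus SDS lysates quantified by mass spectrometry, three biological replicates.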
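Wherever solubility in G1/S (NP-40 vs SDS abundance) is given: HeLa Kyoto cells arrested at G1/S by double thymidine block, proteins quantified by TMT10plex mass spectrometry in mild NP-40 versus SDS extracts, three biological replicates.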
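Wherever thermal stability score vs G1/S (z-score of summed log2 fold changes over temperatures) is given: synchronized HeLa Kyoto cells, proteins quantified by TMT10plex mass spectrometry, three biological replicates, mitosis taken 0.5 h after nocodazole release, G1/S directly after double thymidine block.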

Row | Sequence | solubility in G1/S (log2) (HeLa Kyoto [1]) | melting temperature (HeLa Kyoto [2]; cell cycle stage: G1/S) [°C] | melting temperature (HeLa Kyoto [2]; cell cycle stage: mitosis) [°C] | solubility change mitosis (log2) (HeLa Kyoto [3]) | thermal stability score (HeLa Kyoto [4]; [5]) | thermal stability score (HeLa Kyoto [4]; cell cycle stage: mitosis)
1 | MSGDGATEQAAEYVPEKVKKAEKKLEENPYDLDAWSILIREAQNQPIDKARKTYERLVAQFPSSGRFWKLYIEAEIKAKNYDKVEKLFQRCLMKVLHIDLWKCYLSYVRETKGKLPSYKEKMAQAYDFALDKIGMEIMSYQIWVDYINFLKGVEAVGSYAENQRITAVRRVYQRGCVNPMINIEQLWRDYNKYEEGINIHLAKKMIEDRSRDYMNARRVAKEYETVMKGLDRNAPSVPPQNTPQEAQQVDMWKKYIQWEKSNPLRTEDQTLITKRVMFAYEQCLLVLGHHPDIWYEAAQYLEQSSKLLAEKGDMNNAKLFSDEAANIYERAISTLLKKNMLLYFAYADYEESRMKYEKVHSIYNRLLAIEDIDPTLVYIQYMKFARRAEGIKSGRMIFKKAREDTRTRHHVYVTAALMEYYCSKDKSVAFKIFELGLKKYGDIPEYVLAYIDYLSHLNEDNNTRVLFERVLTSGSLPPEKSGEIWARFLAFESNIGDLASILKVEKRRFTAFKEEYEGKETALLVDRYKFMDLYPCSASELKALGYKDVSRAKLAAIIPDPVVAPSIVPVLKDEVDRKPEYPKPDTQQMIPFQPRHLAPPGLHPVPGGVFPVPPAAVVLMKLLPPPICFQGPFVQVDELMEIFRRCKIPNTVEEAVRIITGGAPELAVEGNGPVESNAVLTKAVKRPNEDSDEDEEKGAVVPPVHDIYRARQQKRIR [CSTF3] | -0.0695 | 52 | 51.9 | -0.000668 | 0.26 | -0.413
2 | MRAVRRGLREGGAMAAARDPPEVSLREATQRKLRRFSELRGKLVARGEFWDIVAITAADEKQELAYNQQLSEKLKRKELPLGVQYHVFVDPAGAKIGNGGSTLCALQCLEKLYGDKWNSFTILLIHSGGYSQRLPNASALGKIFTALPLGNPIYQMLELKLAMYIDFPLNMNPGILVTCADDIELYSIGEFEFIRFDKPGFTALAHPSSLTIGTTHGVFVLDPFDDLKHRDLEYRSCHRFLHKPSIEKMYQFNAVCRPGNFCQQDFAGGDIADLKLDSDYVYTDSLFYMDHKSAKMLLAFYEKIGTLSCEIDAYGDFLQALGPGATVEYTRNTSNVIKEESELVEMRQRIFHLLKGTSLNVVVLNNSKFYHIGTTEEYLFYFTSDNSLKSELGLQSITFSIFPDIPECSGKTSCIIQSILDSRCSVAPGSVVEYSRLGPDVSVGENCIISGSYILTKAALPAHSFVCSLSLKMNRCLKYATMAFGVQDNLKKSVKTLSDIKLLQFFGVCFLSCLDVWNLKVTEELFSGNKTCLSLWTARIFPVCSSLSDSVITSLKMLNAVKNKSAFSLNSYKLLSIEEMLIYKDVEDMITYREQIFLEISLKSSLM [FPGT] | 0.115 | 54.4 | 55.1 | -0.353 | 1.19 | 2.29
3 | MAALVVSGAAEQGGRDGPGRGRAPRGRVANQIPPEILKNPQLQAAIRVLPSNYNFEIPKTIWRIQQAQAKKVALQMPEGLLLFACTIVDILERFTEAEVMVMGDVTYGACCVDDFTARALGADFLVHYGHSCLIPMDTSAQDFRVLYVFVDIRIDTTHLLDSLRLTFPPATALALVSTIQFVSTLQAAAQELKAEYRVSVPQCKPLSPGEILGCTSPRLSKEVEAVVYLGDGRFHLESVMIANPNVPAYRYDPYSKVLSREHYDHQRMQAARQEAIATARSAKSWGLILGTLGRQGSPKILEHLESRLRALGLSFVRLLLSEIFPSKLSLLPEVDVWVQVACPRLSIDWGTAFPKPLLTPYEAAVALRDISWQQPYPMDFYAGSSLGPWTVNHGQDRRPHAPGRPARGKVQEGSARPPSAVACEDCSCRDEKVAPLAP [DPH1] | 0.145 | 53 | 53 | -0.202 | -0.776 | -1.19
4 | MGLSPSAPAVAVQASNASASPPSGCPMHEGKMKGCPVNTEPSGPTCEKKTYSVPAHQERAYEYVECPIRGTAAENKENLDPSNLMPPPNQTPAPDQPFALSTVREESSIPRADSEKKWVYPSEQMFWNAMLKKGWKWKDEDISQKDMYNIIRIHNQNNEQAWKEILKWEALHAAECPCGPSLIRFGGKAKEYSPRARIRSWMGYELPFDRHDWIINRCGTEVRYVIDYYDGGEVNKDYQFTILDVRPALDSLSAVWDRMKVAWWRWTS [HCCS] | 0.328 | 55.3 | 55.1 | -0.0745 | -0.00681 | -0.977
5 | MLLWPLLLLLLLLPTLALLRQQRSQDARLSWLAGLQHRVAWGALVWAATWQRRRLEQSTLHVHQSQQQALRWCLQGAQRPHCSLRRSTDISTFRNHLPLTKASQTQQEDSGEQPLPPTSNQDLGEASLQATLLGLAALNKAYPEVLAQGRTARVTLTSPWPRPLPWPGNTLGQVGTPGTKDPRALLLDALRSPGLRALEAGTAVELLDVFLGLETDGEELAGAIAAGNPGAPLRERAAELREALEQGPRGLALRLWPKLQVVVTLDAGGQAEAVAALGALWCQGLAFFSPAYAASGGVLGLNLQPEQPHGLYLLPPGAPFIELLPVKEGTQEEAASTLLLAEAQQGKEYELVLTDRASLTRCRLGDVVRVVGAYNQCPVVRFICRLDQTLSVRGEDIGEDLFSEALGRAVGQWAGAKLLDHGCVESSILDSSAGSAPHYEVFVALRGLRNLSEENRDKLDHCLQEASPRYKSLRFWGSVGPARVHLVGQGAFRALRAALAACPSSPFPPAMPRVLRHRHLAQCLQERVVS [GHDC] | -0.104 | 53.7 | 55.1 | -0.154 | 0.585 | 1.25
6 | MSTAAVPELKQISRVEAMRLGPGWSHSCHAMLYAANPGQLFGRIPMRFSVLMQMRFDGLLGFPGGFVDRRFWSLEDGLNRVLGLGLGCLRLTEADYLSSHLTEGPHRVVAHLYARQLTLEQLHAVEISAVHSRDHGLEVLGLVRVPLYTQKDRVGGFPNFLSNAFVSTAKCQLLFALKVLNMMPEEKLVEALAAATEKQKKALEKLLPASS [NUDT16L1] | -0.521 | 52 | 52.3 | 0.104 | -0.0688 | -2.32
7 | MFRRKLTALDYHNPAGFNCKDETEFRNFIVWLEDQKIRHYKIEDRGNLRNIHSSDWPKFFEKYLRDVNCPFKIQDRQEAIDWLLGLAVRLEYGDNAEKYKDLVPDNSKTADNATKNAEPLINLDVNNPDFKAGVMALANLLQIQRHDDYLVMLKAIRILVQERLTQDAVAKANQTKEGLPVALDKHILGFDTGDAVLNEAAQILRLLHIEELRELQTKINEAIVAVQAIIADPKTDHRLGKVGR [C14ORF166] | 0.0935 | 50.1 | 51.3 | 0.329 | -1.08 | -0.0878
8 | MASVWQRLGFYASLLKRQLNGGPDVIKWERRVIPGCTRSIYSATGKWTKEYTLQTRKDVEKWWHQRIKEQASKISEADKSKPKFYVLSMFPYPSGKLHMGHVRVYTISDTIARFQKMRGMQVINPMGWDAFGLPAENAAVERNLHPQSWTQSNIKHMRKQLDRLGLCFSWDREITTCLPDYYKWTQYLFIKLYEAGLAYQKEALVNWDPVDQTVLANEQVDEHGCSWRSGAKVEQKYLRQWFIKTTAYAKAMQDALADLPEWYGIKGMQAHWIGDCVGCHLDFTLKVHGQATGEKLTAYTATPEAIYGTSHVAISPSHRLLHGHSSLKEALRMALVPGKDCLTPVMAVNMLTQQEVPVVILAKADLEGSLDSKIGIPSTSSEDTILAQTLGLAYSEVIETLPDGTERLSSSAEFTGMTRQDAFLALTQKARGKRVGGDVTSDKLKDWLISRQRYWGTPIPIVHCPVCGPTPVPLEDLPVTLPNIASFTGKGGPPLAMASEWVNCSCPRCKGAAKRETDTMDTFVDSAWYYFRYTDPHNPHSPFNTAVADYWMPVDLYIGGKEHAVMHLFYARFFSHFCHDQKMVKHREPFHKLLAQGLIKGQTFRLPSGQYLQREEVDLTGSVPVHAKTKEKLEVTWEKMSKSKHNGVDPEEVVEQYGIDTIRLYILFAAPPEKDILWDVKTDALPGVLRWQQRLWTLTTRFIEARASGKSPQPQLLSNKEKAEARKLWEYKNSVISQVTTHFTEDFSLNSAISQLMGLSNALSQASQSVILHSPEFEDALCALMVMAAPLAPHVTSEIWAGLALVPRKLCAHYTWDASVLLQAWPAVDPEFLQQPEVVQMAVLINNKACGKIPVPQQVARDQDKVHEFVLQSELGVRLLQGRSIKKSFLSPRTALINFLVQD [LARS2] | -0.045 | 49.7 | 49.9 | -0.0972 | 0.0823 | 0.851
9 | MADLEAVLADVSYLMAMEKSKATPAARASKKILLPEPSIRSVMQKYLEDRGEVTFEKIFSQKLGYLLFRDFCLNHLEEARPLVEFYEEIKKYEKLETEEERVARSREIFDSYIMKELLACSHPFSKSATEHVQGHLGKKQVPPDLFQPYIEEICQNLRGDVFQKFIESDKFTRFCQWKNVELNIHLTMNDFSVHRIIGRGGFGEVYGCRKADTGKMYAMKCLDKKRIKMKQGETLALNERIMLSLVSTGDCPFIVCMSYAFHTPDKLSFILDLMNGGDLHYHLSQHGVFSEADMRFYAAEIILGLEHMHNRFVVYRDLKPANILLDEHGHVRISDLGLACDFSKKKPHASVGTHGYMAPEVLQKGVAYDSSADWFSLGCMLFKLLRGHSPFRQHKTKDKHEIDRMTLTMAVELPDSFSPELRSLLEGLLQRDVNRRLGCLGRGAQEVKESPFFRSLDWQMVFLQKYPPPLIPPRGEVNAADAFDIGSFDEEDTKGIKLLDSDQELYRNFPLTISERWQQEVAETVFDTINAETDRLEARKKAKNKQLGHEEDYALGKDCIMHGYMSKMGNPFLTQWQRRYFYLFPNRLEWRGEGEAPQSLLTMEEIQSVEETQIKERKCLLLKIRGGKQFILQCDSDPELVQWKKELRDAYREAQQLVQRVPKMKNKPRSPVVELSKVPLVQRGSANGL [ADRBK1] | -0.107 | 51.6 | 51.4 | -0.0655 | 1.35 | 0.436
10 | MAEPSAATQSHSISSSSFGAEPSAPGGGGSPGACPALGTKSCSSSCADSFVSSSSSQPVSLFSTSQEGLSSLCSDEPSSEIMTSSFLSSSEIHNTGLTILHGEKSHVLGSQPILAKEGKDHLDLLDMKKMEKPQGTSNNVSDSSVSLAAGVHCDRPSIPASFPEHPAFLSKKIGQVEEQIDKETKNPNGVSSREAKTALDADDRFTLLTAQKPPTEYSKVEGIYTYSLSPSKVSGDDVIEKDSPESPFEVIIDKAAFDKEFKDSYKESTDDFGSWSVHTDKESSEDISETNDKLFPLRNKEAGRYPMSALLSRQFSHTNAALEEVSRCVNDMHNFTNEILTWDLVPQVKQQTDKSSDCITKTTGLDMSEYNSEIPVVNLKTSTHQKTPVCSIDGSTPITKSTGDWAEASLQQENAITGKPVPDSLNSTKEFSIKGVQGNMQKQDDTLAELPGSPPEKCDSLGSGVATVKVVLPDDHLKDEMDWQSSALGEITEADSSGESDDTVIEDITADTSFENNKIQAEKPVSIPSAVVKTGEREIKEIPSCEREEKTSKNFEELVSDSELHQDQPDILGRSPASEAACSKVPDTNVSLEDVSEVAPEKPITTENPKLPSTVSPNVFNETEFSLNVTTSAYLESLHGKNVKHIDDSSPEDLIAAFTETRDKGIVDSERNAFKAISEKMTDFKTTPPVEVLHENESGGSEIKDIGSKYSEQSKETNGSEPLGVFPTQGTPVASLDLEQEQLTIKALKELGERQVEKSTSAQRDAELPSEEVLKQTFTFAPESWPQRSYDILERNVKNGSDLGISQKPITIRETTRVDAVSSLSKTELVKKHVLARLLTDFSVHDLIFWRDVKKTGFVFGTTLIMLLSLAAFSVISVVSYLILALLSVTISFRIYKSVIQAVQKSEEGHPFKAYLDVDITLSSEAFHNYMNAAMVHINRALKLIIRLFLVEDLVDSLKLAVFMWLMTYVGAVFNGITLLILAELLIFSVPIVYEKYKTQIDHYVGIARDQTKSIVEKIQAKLPGIAKKKAE [RTN3] | 0.125 | 55.7 | 57.6 | -0.108 | 0.293 | -1.15
